Tests used:
ICAM-1 D60/N = ICAM-1 D60/N (human, UniProt P05362); assay: flow, COS cells
ICAM-1 E87/K = ICAM-1 E87/K (human, UniProt P05362); assay: flow, COS cells
ICAM-1 S177/G = ICAM-1 S177/G (human, UniProt P05362); assay: flow, COS cells
ICAM-1 D229QR/HLE = ICAM-1 D229QR/HLE (human, UniProt P05362); assay: flow, COS cells
[1] = target: ICAM-1 N269QSQI/IQAEQ (human) (UniProt P05362); assay: flow, COS cells
ICAM-1 E59/K [2] = target: T1, ICAM-1 E59/K (human, UniProt P05362); assay: flow, COS cells
ICAM-1 E127/R = ICAM-1 E127/R (human, UniProt P05362); assay: flow, COS cells
ICAM-1 Y52/F = ICAM-1 Y52/F (human, UniProt P05362); assay: flow, COS cells
ICAM-1 K50V/EL = ICAM-1 K50V/EL (human, UniProt P05362); assay: flow, COS cells
ICAM-1 N175TSA/QTLG [3] = target: T2, ICAM-1 N175TSA/QTLG (human, UniProt P05362); assay: flow, COS cells
ICAM-1 Q27/L = ICAM-1 Q27/L (human, UniProt P05362); assay: flow, COS cells
ICAM-1 Q1/K = ICAM-1 Q1/K (human, UniProt P05362); assay: flow, COS cells
ICAM-1 S61/I = ICAM-1 S61/I (human, UniProt P05362); assay: flow, COS cells
ICAM-1 V136GE/GVK = ICAM-1 V136GE/GVK (human, UniProt P05362); assay: flow, COS cells
ICAM-1 G15/SA = ICAM-1 G15/SA (human, UniProt P05362); assay: flow, COS cells
ICAM-1 G46NN/ASI = ICAM-1 G46NN/ASI (human, UniProt P05362); assay: flow, COS cells
ICAM-1 M64/I = ICAM-1 M64/I (human, UniProt P05362); assay: 35S-HRV14 on COS cells
Procedure: (§1) COS cells were seeded into 10 cm tissue culture plates such that they would be 50% confluent by 16-24 hrs. COS cells were then washed once with TBS and incubated for 4 hrs with 4 ml RPMI containing 10% Nu sera (Collaborative) 5 pg/ml chloroquine, 3 μg of mutant plasmid and 200 μg/ml DEAE-dextran sulfate. Cells were then washed with 10% DMSO/PBS followed by PBS and cultured 16 hrs in culture media. Culture media was replaced with fresh media and at 48 hrs post transfection (OS cells were suspended by trypsin/EDTA (Gibco) treatment and divided into 2, 10 cm plates as well as 24 well tissue culture plates for HRV binding. At 72 hrs cells were harvested from 10 cm plates with 5 mM EDTA/HBSS and processed for adhesion to LFA-1 coated plastic and immunofluorescence.
(§2) Binding occurred in 1 hr at 35° C. in a 5% CO₂ atmosphere with horizontal rotation (100 rpm). Unbound [³⁵S] HRV14 was aspirated, COS cells were gently washed with 150 ml of HRV buffer and then solubilized with 1% SDS in PBS for scintillation counting.
(§3) In Table 25, the notation for the mutations uses the one-letter code for the wild-type sequence followed by a slash and the one-letter code for the corresponding mutant sequence. The position of the first amino acid within the sequence is indicated. Wild type residues precede the slash followed by the residues they were substituted for in the mutant. COS cells expressing ICAM-1 mutants were tested for adherence to LFA-1 coated plastic and for binding 35S met-labeled HRV14. […] Binding is presented as mean and standard error (SE) for multiple experiments (n). […] The specific linear fluorescence intensity (SLFI) of CL203 for each mutant is normalized to that of wild type CL203 SLFI (% WT) as discussed above. The SLFI of RR1/1, R6.5 and LB-2 SLFI is normalized to the CL203 SLFI of the mutant (% CL203) as described above.

ICAM-1 E59/K [4] = target: T1, ICAM-1 E59/K; assay: 35S-HRV14 on COS cells
Procedure: as §1, §2, §3

ICAM-1 D203TQ/TAD = ICAM-1 D203TQ/TAD (human, UniProt P05362); assay: 35S-HRV14 on COS cells
Procedure: as §1, §2, §3

ICAM-1 N175/A = ICAM-1 N175/A (human, UniProt P05362); assay: 35S-HRV14 on COS cells
Procedure: as §1, §2, §3

ICAM-1 N68/K = ICAM-1 N68/K (human, UniProt P05362); assay: 35S-HRV14 on COS cells
Procedure: as §1, §2, §3

ICAM-1 S3VS/AGL = ICAM-1 S3VS/AGL (human, UniProt P05362); assay: 35S-HRV14 on COS cells
Procedure: as §1, §2, §3

ICAM-1 D60/Q = ICAM-1 D60/Q (human, UniProt P05362); assay: 35S-HRV14 on COS cells
Procedure: as §1, §2, §3

ICAM-1 N175TSA/QTLG [5] = target: T2, ICAM-1 N175TSA/QTLG; assay: 35S-HRV14 on COS cells
Procedure: as §1, §2, §3

ICAM-1 Q1/E = ICAM-1 Q1/E (human, UniProt P05362); assay: 35S-HRV14 on COS cells
Procedure: as §1, §2, §3

ICAM-1 Q73/T = ICAM-1 Q73/T (human, UniProt P05362); assay: 35S-HRV14 on COS cells
Procedure: as §1, §2, §3

ICAM-1 D60/K = ICAM-1 D60/K (human, UniProt P05362); assay: 35S-HRV14 on COS cells
Procedure: as §1, §2, §3

ICAM-1 R49KV/EKL = ICAM-1 R49KV/EKL (human, UniProt P05362); assay: 35S-HRV14 on COS cells
Procedure: as §1, §2, §3

ICAM-1 Q58/H = ICAM-1 Q58/H (human, UniProt P05362); assay: 35S-HRV14 on COS cells
Procedure: as §1, §2, §3

ICAM-1 Q73/H = ICAM-1 Q73/H (human, UniProt P05362); assay: 35S-HRV14 on COS cells
Procedure: as §1, §2, §3

ICAM-1 K77T/ES = ICAM-1 K77T/ES (human, UniProt P05362); assay: 35S-HRV14 on COS cells
Procedure: as §1, §2, §3

ICAM-1 K39KE/ERQ = ICAM-1 K39KE/ERQ (human, UniProt P05362); assay: 35S-HRV14 on COS cells
Procedure: as §1, §2, §3

ICAM-1 E34/A = ICAM-1 E34/A (human, UniProt P05362); assay: 35S-HRV14 on COS cells
Procedure: as §1, §2, §3

monoclonal antibody CL203
SLFI % WT (ICAM-1 D60/N): 127 % WT | SLFI % WT (ICAM-1 E87/K): 94 % WT | SLFI % WT (ICAM-1 S177/G): 87 % WT | SLFI % WT (ICAM-1 D229QR/HLE): 210 % WT | SLFI % WT [1]: 95 % WT | SLFI % WT (ICAM-1 E59/K [2]): 130 % WT | SLFI % WT (ICAM-1 E127/R): 191 % WT | SLFI % WT (ICAM-1 Y52/F): 152 % WT | SLFI % WT (ICAM-1 K50V/EL): 103 % WT | SLFI % WT (ICAM-1 N175TSA/QTLG [3]): 75 % WT | SLFI % WT (ICAM-1 Q27/L): 33 % WT | SLFI % WT (ICAM-1 Q1/K): 168 % WT | SLFI % WT (ICAM-1 S61/I): 140 % WT | SLFI % WT (ICAM-1 V136GE/GVK): 171 % WT | SLFI % WT (ICAM-1 G15/SA): 172 % WT | SLFI % WT (ICAM-1 G46NN/ASI): 151 % WT

B1: human rhinovirus 14 (HRV14) (other)
chain: GAQVSTQKSGSHENQNILTNGSNQTFTVINYYKDAASTSSAGQSLSMDPSKFTEPVKDLMLKGAPALNSPNVEACGYSDRVQQITLGNSTITTQEAANAVVCYAEWPEYLPDVDASDVNKTSKPDTSVCRFYTLDSKTWTTGSKGWCWKLPDALKDMGVFGQNMFFHSLGRSGYTVHVQCNATKFHSGCLLVVVIPEHQLASHEGGNVSVKYTFTHPGERGIDLSSANEVGGPVKDVIYNMNGTLLGNLLIFPHQFINLRTNNTATIVIPYINSVPIDSMTRHNNVSLMVIPIAPLTVPTGATPSLPITVTIAPMCTEFSGIRSKSIVPQGLPTTTLPGSGQFLTTDDRQSPSALPNYEPTPRIHIPGKVHNLLEIIQVDTLIPMNNTHTKDEVNSYLIPLNANRQNEQVFGTNLFIGDGVFKTTLLGEIVQYYTHWSGSLRFSLMYTGPALSSAKLILAYTPPGARGPQDRREAMLGTHVVWDIGLQSTIVMTIPWTSGVQFRYTDPDTYTSAGFLSCWYQTSLILPPETTGQVYLLSFISACPDFKLRLMKDTQTISQTVALTEGLGDELEEVIVEKTKQTVASISSGPKHTQKVPILTANETGATMPVLPSDSIETRTTYMHFNGSETDVECFLGRAACVHVTEIQNKDATGIDNHREAKLFNDWKINLSSLVQLRKKLELFTYVRFDSEYTILATASQPDSANYSSNLVVQAMYVPPGAPNPKEWDDYTWQSASNPSVFFKVGDTSRFSVPYVGLASAYNCFYDGYSHDDAETQYGITVLNHMGSMAFRIVNEHDEHKTLVKIRVYHRAKHVEAWIPRAPRALPYTSIGRTNYPKNTEPVIKKRKGDIKSY
modifications: [35S]-Met labeled
HRV Binding % (ICAM-1 M64/I): 107 % of wild type | HRV Binding % (ICAM-1 E59/K [4]): 105 % of wild type | HRV Binding % (ICAM-1 D203TQ/TAD): 111 % of wild type | HRV Binding % (ICAM-1 N175/A): 129 % of wild type | HRV Binding % (ICAM-1 N68/K): 137 % of wild type | HRV Binding % (ICAM-1 S3VS/AGL): 61 % of wild type | HRV Binding % (ICAM-1 D60/Q): 20 % of wild type | HRV Binding % (ICAM-1 N175TSA/QTLG [5]): 40 % of wild type | HRV Binding % (ICAM-1 Q1/E): 149 % of wild type | HRV Binding % (ICAM-1 Q73/T): 133 % of wild type | HRV Binding % (ICAM-1 D60/K): 4 % of wild type | HRV Binding % (ICAM-1 R49KV/EKL): 49 % of wild type | HRV Binding % (ICAM-1 Q58/H): 1 % of wild type | HRV Binding % (ICAM-1 Q73/H): 117 % of wild type | HRV Binding % (ICAM-1 K77T/ES): 42 % of wild type | HRV Binding % (ICAM-1 K39KE/ERQ): 61 % of wild type | HRV Binding % (ICAM-1 E34/A): 66 % of wild type
